Experimental data as given in paper PMC8008188.

Molecular target: bone sialoprotein, full length 90 kDa, of UMR106-01 osteoblastic cultures (rat (endogenous in UMR106-01)) (UniProt P13839)
Experiment: co-elution on anion-exchange chromatography; EDTA extract of mineralizing UMR106-01 cultures on POROS 20 HQ in 0.05 M sodium acetate pH 5.2, 8 M urea, 0.1% CHAPS; 0 to 0.6 M NaCl gradient, then 2 M NaCl step; fractions read by dot blot and Western blot with anti-BSP and anti-6b antibodies

Sequence of UniProt P13839 (P13839 17-320): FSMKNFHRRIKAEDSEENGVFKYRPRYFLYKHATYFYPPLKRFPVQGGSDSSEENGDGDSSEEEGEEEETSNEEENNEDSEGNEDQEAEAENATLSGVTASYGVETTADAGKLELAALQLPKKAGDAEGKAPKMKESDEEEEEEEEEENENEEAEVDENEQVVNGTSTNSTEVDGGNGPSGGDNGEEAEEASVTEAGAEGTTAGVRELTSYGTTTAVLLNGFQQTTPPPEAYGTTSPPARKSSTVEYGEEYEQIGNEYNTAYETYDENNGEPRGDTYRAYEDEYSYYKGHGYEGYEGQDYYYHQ

- percent of the fragment co-eluting with BSP: > 80%
Substance: 60 kDa Col11a1 N-terminal domain (NTD) fragment with the “6b” exon sequence (domain or fragment)
